Assay results: paper PMC8238500

How the values were obtained:
Assay in all cases: BRET (NanoLuc-miniG recruitment to plasma-membrane K-ras-YFP)
[1] = target: NES-NanoLuc-MiniG subtype miniG12; conditions: 500 ng receptor plasmid; parent: est. 0.020; read off a plot
[2] = target: NES-NanoLuc-MiniG subtype miniGi; conditions: 500 ng receptor plasmid; parent: est. -0.023; read off a plot
[3] = target: NES-NanoLuc-MiniG subtype miniGq; conditions: 500 ng receptor plasmid; parent: est. -0.030; read off a plot
[4] = target: NES-NanoLuc-MiniG subtype miniGs; conditions: 500 ng receptor plasmid; parent: est. 0.092; read off a plot

response [1]: 0.027 AU | response [2]: -0.013 AU | response [3]: -0.015 AU | response [4]: 0.011 AU
Sequence: G protein-coupled receptor 3 (GPR3), wild type (from UniProt P46089) DRY-mutant
